Experimental findings from paper PMC8113602 are described below.

For test [1], the target named is gp41 bait of pBT3-SUC-gp41 (ectodomain and transmembrane region of gp41, HIV-1 Env aa 534-709). The experiment in a line: split-ubiquitin yeast two-hybrid, β-galactosidase activity assay. The conditions noted are these: yeast NMY51, three independent yeast colonies, parent: est. 39, read off a plot.
The target in a further test is SP-gp41-CFP (HIV-1). Briefly: FRET or BRET; acceptor photobleaching FRET in HEK293T cells 24 h after transfection; donor SP-gp41-CFP, acceptor CD63-YFP; 514 nm bleaching. For orientation: Bioluminescence resonance energy transfer reports proximity on the nanometre scale.

“CD63 TM4LEL (aa 108-238), single membrane spanning prey (from UniProt P08962) C145A; C146A”: the response in test [1] came out at 11 Miller units. Same read-out and setting: to “CD63 TM4LEL (aa 108-238), single membrane spanning prey (from UniProt P08962) C169A; C170A” belongs 30 Miller units; to “CD63 TM4LEL (aa 108-238), single membrane spanning prey (from UniProt P08962) C177A”, 25 Miller units. Still for that read-out and setting: in the case of “CD63 TM4LEL (aa 108-238), single membrane spanning prey (from UniProt P08962) C191A” it was 17 Miller units. Regarding “CD63_(C145A,C146A)-YFP (from UniProt P08962 1-238) (natural protein)”, in the test with SP-gp41-CFP (HIV-1), the reduction of FRET efficiency against CD63-YFP as acceptor was less than 58%.
